The text below walks through data of patent US20210107981A1 (SUTRO BIOPHARMA, published 2021).

The Kd is the concentration at which binding is half-saturated. Read a low Kd as higher affinity. What is called EC50 is the concentration giving half of the maximal effect. Read a high EC50 as lower potency in that assay. The IC50 is the point on the concentration scale where inhibition reaches its midpoint.

Test [1] addresses T1, Human PD-1 (ACROBiosystems, Inc., Catalog No. PD1-H5221) (human, UniProt Q15116 25-167).
T1 construct: Bought recombinant protein; also called huPD1-His; PD-1-his; not shown: His tag of the bought protein (huPD1-His)
The experiment in a line: SPR (Biacore). Background: SPR reads the build-up and loss of mass on a sensor chip optically.

In test [2] the target is T2, cynomolgus PD-1 (ACROBiosystems, Inc., Catalog No. PD1-H5254) (cynomolgus, UniProt B0LAJ3 25-167).
T2 construct: also called cyno PD-1
The experiment in a line: SPR (Biacore).

The target of test [3] is T1, Human PD-1 (ACROBiosystems, Inc., …). Put plainly: ELISA, binding of human PD-1 (coated). In general terms: ELISA stands for enzyme-linked immunosorbent assay.
The target of test [4] is T3, human PD-1 expressed on the cell surface (CHO-PD1 cells) (human, UniProt Q15116 25-288).
T3 construct: Also used here as the target for native PD-1 on human PBMC / T cells in the functional (IFN-g) assays; also called CHO cell line overexpressing human PD-1; Cell-Surface Human PD-1 antigen
Put plainly: FACS cell binding, CHO cell line overexpressing human PD-1. On the procedure: Antibodies with expression levels >250 nM and mouse IgGs from hybridomas were tested in a fluorescence-activated cell sorting (FACS) cell-binding assay. Chinese Hamster Ovary (or CHO) Cells stably expressing the human target molecule PD-1 on the cell surface (CHO-PD1) were used to screen for binding. Parental CHO cells were used as a negative control to determine background-binding levels. Parental CHO cells and CHO-PD1 cells were cultured in RPMI w/10% FCS penicillin/streptomycin (Pen/Strep) and glutamine (or Gln) and split every 3-4 days at 10⁵ cells/mL.
A mix of parental CHO cells and CHO-PD1 cells was prepared as follows: Parental CHO cells were washed 2× in PBS then incubated in PBS containing 1 μM CellTrace™ Oregon Green488® (Life Technologies) at 37° C. for 30 minutes. Cells were then washed 2× with RPMI w/10% fetal calf serum (FCS), washed 2× with FACS buffer (PBS w/2% FCS), suspended thoroughly in ice-cold FACS buffer at a final concentration of 2×10⁶ cells/mL and kept on ice. CHO-PD1 cells were similarly washed with FACS buffer and kept on ice at 2×10⁶ cells/mL. Parental CHO cells and CHO-PD1 cells were then mixed to obtain a 1:1 cell suspension and seeded at 100 μL per well on 96 well polypropylene plates. Plates were spun at 1500 rpm for 5 minutes and cell pellets were suspended in 50 μL FACS buffer containing 6-12 point dilutions of anti-PD-1 variants starting from concentrations of −100-200 nM antibody, dispensed using BioMek FX (Beckman Coulter). Cells were then incubated on ice for 1 hr, washed with FACS buffer and incubated for 1 hr on ice with 50 μL FACS buffer containing 2.5 μg/ml R-phycoerythrin-conjugated goat anti-Human IgG (Jackson ImmunoResearch) or AF647-conjugated goat anti-mouse IgG (Life Technologies) dispensed using BioMek FX (Beckman Coulter). Cells were then washed 2× with FACS buffer and fixed for 10 minutes in 200 μL PBS with 2% paraformaldehyde (PFA) prior to fluorescence detection. Samples were acquired using a Becton Dickinson LSRII FACS. Mean Fluorescence Intensity of PD-1 antibody binding was analyzed using FlowJo® software (Tree Star, Inc.).

Test [5] deals with T3, human PD-1 expressed on the cell …. The experiment in a line: cell-based FACS competition on CHO-PD1 cells; competitor rhPDL1-Fc. How it is done: (§1) CHO-PD1 cells were cultured in RPMI with 10% FCS Pen/Strep and Gln and split every 3-4 days at 10⁵ cells/ml. Cells were washed 2× with FACS buffer (PBS w/2% FCS), […] at a final concentration of 1×10⁶ cells/ml and seeded at […] per well on 96 well polypropylene plates. Plates were spun at 1500 rpm for 5 minutes and cell pellets were suspended in 50 μL FACS buffer containing 8 point 1:3 dilutions (2× concentrated) of anti-PD-1 antibody variants, starting from high concentration of −200 nM. […] Cell were then incubated on ice for 1 hr, washed with FACS buffer and incubated for 1 hr on ice with 50 μl FACS buffer containing 2.5 μg/ml R-phycoerythrin-conjugated anti-human IgG (Jackson ImmunoResearch). Cells were then washed 2× with FACS buffer and fixed for 10 minutes in 200 μl PBS with 2% PFA prior to acquisition. Samples were acquired using a Becton Dickinson LSRII FACS.

The target is the same in test [6]. The experiment in a line: cell-based FACS competition on CHO-PD1 cells; competitor rhPDL2-Fc. How it is done: as §1
Test [7] deals with T1, Human PD-1 (ACROBiosystems, Inc., …). The experiment in a line: competition ELISA on coated PD-1; competitor PD-L1-Fc (ACROBiosystems). On the procedure: PD-1 (ACROBiosystems, Inc.) was adsorbed on 384-well white Maxisorp® plates (Nunc) at 2 μg/mL in sodium bicarbonate buffer (pH 8.9) and incubated at 30° C. for 1 hour or overnight at 4° C. The plate was washed 3 times with PBS pH 7.4 with 0.05% Tween20 and blocked with 2% bovine serum albumin (BSA) in PBS pH 7.4+0.1% Tween20 for 1 hour at 30° C.
After a 1 hour incubation at 30° C., the plate was washed and incubated with HRP-conjugated anti-mouse Fc (Jackson Laboratories), followed by detection with SuperSignal™ Pico Chemiluminescent Substrate (Thermo Pierce). Luminescence was detected on a SpectraMax® M5 plate reader (Molecular Devices).

T3 sequence (Q15116 25-288 limits assumed): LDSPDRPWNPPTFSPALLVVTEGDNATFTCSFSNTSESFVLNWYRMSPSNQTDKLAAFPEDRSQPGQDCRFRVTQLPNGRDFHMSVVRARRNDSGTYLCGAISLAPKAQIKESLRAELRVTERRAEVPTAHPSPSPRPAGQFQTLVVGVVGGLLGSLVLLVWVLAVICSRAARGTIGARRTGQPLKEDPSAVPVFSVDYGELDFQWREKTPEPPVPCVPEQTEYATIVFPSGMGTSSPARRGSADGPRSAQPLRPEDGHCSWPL
T1 sequence (Q15116 25-167 limits assumed): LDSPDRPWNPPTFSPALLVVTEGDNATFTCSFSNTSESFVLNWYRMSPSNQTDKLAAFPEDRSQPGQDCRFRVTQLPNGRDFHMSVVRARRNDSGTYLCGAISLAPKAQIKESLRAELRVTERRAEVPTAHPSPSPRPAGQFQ
T2 sequence (B0LAJ3 entry or part of it limits assumed, form in doubt): as the sequence (Q15116 25-167 limits assumed) above, with D2E, P10A, V19L, T35A, Q75R counted along it

B1: 10B4 murine hybridoma IgG (antibody, V domains shown)
VH: QVQLQQSGAELMKPGASVKMSCKTTGYIFSSYWIGWVKQRPGHGLEWIGKIFPGSGSADYNENFKGKATFTVDTSSNTAYMQLSSLTSEDSAVYYCARGYGNYLYFDVWGAGTTVTVSS
VL: NIVMTQTPKFLLVSAGDRITITCKASQSVSDDVAWYQQKPGQSPKLLISYAFKRYIGVPDRFTGSGYGTDFTFTISTVQAEDLAVYFCQQNYNSPYTFGGGTKLELKR
notes: Mouse IgG from hybridoma; also called m10B4
As for B1, the Kd came out at 0.252 nM in test [1], 0.195 nM in test [2] and 1.34 nM in test [4]. Further, a half-maximal response in test [3] (EC50) required 0.59 nM. Further, the 50% inhibitory concentration (IC50) is 2.53 nM in test [5], 0.18 nM in test [6] and 1.32 nM in test [7].

B2: 4B10 murine hybridoma IgG (antibody, V domains shown)
VH: EVKLVESGGGLVKPGGSLKLSCAASGFTFSTYGMSWVRQTPEKRLQWVATISGGGSNTYYSDSVKGRFTISRDNAKNNLYLQMSSLRSEDTALYYCARQRDSAWFASWGQGTLVTVSA
VL: not shown
notes: Mouse IgG from hybridoma; also called m4B10
B2: the Kd in test [1] worked out at 0.913 nM; in test [2], 0.561 nM; in test [4] it was 1.39 nM. Moreover, the EC50 in test [3] was 0.47 nM. Also, the half-inhibitory concentration (IC50) worked out at 1.99 nM in test [5], 0.01 nM in test [6] and 1.43 nM in test [7].

B3: 1B10 murine hybridoma IgG (antibody, V domains shown)
VH: DVQLQESGPGLVKPSQSLSLTCTVTGHSITSDYAWNWIRQFPGNKLEWMGYISYSGRTSYNPSLTSRISITRDTSKNQFFLQLNSVTTEDTATYYCARGYALDYWGQGTSVTVSS
VL: QIVLSQSPAILSASPGEKVTMTCRTSSSVNYMHWFQQKPGSSPKPWIYATSKLASGVPARFSGSGSGTSYSLTISRVEAEDAATYFCQQWISDPWTFGGGTKLEIK
notes: Mouse IgG from hybridoma; also called m1B10
With B3, the Kd in test [1] amounted to 10.4 nM; in test [2], 2.56 nM; in test [4], 3.2 nM. The same molecule showed a half-maximal effective concentration (EC50) in test [3] of 1.71 nM. The half-inhibitory concentration (IC50) in test [5] is 5.96 nM; in test [6], 0.56 nM; in test [7], 9.47 nM.

B4: 1E9 murine hybridoma IgG (antibody, V domains shown)
VH: EVKLVESGGGLVSPGGSLKLSCAASGFTFSTFGMSWVRQTPEKRLEWVATISGGGSDTYYPDSVQGRFIISRYNAKNNLYLQMNSLRPEDTALYYCARQGYDVYSWFAYWGQGTLVTVSA
VL: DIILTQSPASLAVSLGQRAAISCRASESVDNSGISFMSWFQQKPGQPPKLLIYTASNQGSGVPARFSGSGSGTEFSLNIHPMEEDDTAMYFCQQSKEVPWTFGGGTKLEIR
notes: Mouse IgG from hybridoma; also called m1E9
Consider B4, for which the equilibrium dissociation constant (Kd) in test [1] stood at 9.9 nM; in test [2], 2.54 nM; in test [4] it was 2.9 nM. Further, in test [3], the concentration for a half-maximal effect (EC50) was found to be 0.33 nM. Moreover, the 50% inhibitory concentration (IC50) in test [5] amounted to 5.86 nM; in test [6], 0.58 nM; in test [7], 0.89 nM.
